Data published in PMC11548876.

Tests used:
[1] = molecular target: CcBurs-β (Cacopsylla chinensis); assay: non-reduced versus reduced SDS-PAGE with western blot; His-tagged subunits expressed separately or co-expressed in HEK293T, collected from the medium and purified on Ni-NTA; 12% SDS-PAGE (non-reduced) and 15% SDS-PAGE (reduced), anti-His blot
[2] = molecular target: CcBurs-α (Cacopsylla chinensis); assay: as above

| stoichiometry N [1] | stoichiometry N [2] | Substance |
| --- | --- | --- |
| 2 | – | CcBurs-β (natural protein) |
| – | 2 | CcBurs-α (natural protein) |
